Assay results taken from article PMC7261172, “Peptides containing the PCNA interacting motif APIM bind to the β-clamp and inhibit bacterial growth and mutagenesis” (Nucleic Acids Research, 2020).

Key:
Settings in all cases: both partners purified
[1] = molecular target: T1, E. coli β-clamp, wild type, His-tagged (E. coli, UniProt P0A988 1-366); assay: NMR titration; 1D 1H NMR of the peptide with sub-stoichiometric β-clamp (100 or 50 μM peptide added 5 or 20 μM β-clamp); line broadening or loss of signal read; 298 K, 20 mM NaH2PO4, 100 mM NaCl, pH 7.4
T1 construct: β-clamp (β subunit of DNA polymerase III), product of the dnaN gene, E. coli; no cleavage is described; also called WT β-clamp; DNA sliding clamp; source: for NMR HisTrap FF and Superdex 200 SEC

[2] = molecular target: T2, E. coli β-clamp H148K, His-tagged (E. coli, UniProt P0A988 1-366, H148K); assay: SPR; WT or mutant β-clamp immobilised by amine coupling on CM5 (about 2000 RU); octamer peptides at 4-128 μM, single-cycle; 25°C, 30 μl/min; PBS P+ (20 mM phosphate pH 7.4, 3 mM KCl, 137 mM NaCl, 0.05% P20); sensorgrams normalised to the immobilised level
T2 construct: β-clamp, product of the dnaN gene, E. coli, with H148K; Made by site-directed mutagenesis of the plasmid of m1

[3] = molecular target: T3, E. coli β-clamp V151A, His-tagged (E. coli, UniProt P0A988 1-366, V151A); assay: as above
T3 construct: β-clamp, product of the dnaN gene, E. coli, with V151A; Made by site-directed mutagenesis of the plasmid of m1

[4] = molecular target: T4, E. coli β-clamp P242D, His-tagged (E. coli, UniProt P0A988 1-366, P242D); assay: as above
T4 construct: β-clamp, product of the dnaN gene, E. coli, with P242D; Made by site-directed mutagenesis of the plasmid of m1

[5] = molecular target: T5, E. coli β-clamp M362D, His-tagged (E. coli, UniProt P0A988 1-366, M362D); assay: as above
T5 construct: β-clamp, product of the dnaN gene, E. coli, with M362D; Made by site-directed mutagenesis of the plasmid of m1

[6] = molecular target: T6, E. coli β-clamp P363D, His-tagged (E. coli, UniProt P0A988 1-366, P363D); assay: as above
T6 construct: β-clamp, product of the dnaN gene, E. coli, with P363D; Made by site-directed mutagenesis of the plasmid of m1

[7] = molecular target: T7, E. coli β-clamp labelled with RED-maleimide dye (MST) (E. coli, UniProt P0A988 1-366, RED-maleimide fluorescent dye (RED-Maleimide Labelling Kit, NanoTemper); site not stated); assay: MST; β-clamp labelled with RED-maleimide (3 nM stock, diluted 1:1 with ligand); peptides in 16 1:1 dilutions from 500 μM to 15 nM; 50 mM Tris-HCl pH 7.5, 150 mM NaCl, 10 mM MgCl2, 2% fetal bovine serum; Monolith NT.115; change of fluorescence analysed
T7 construct: β-clamp (β subunit of DNA polymerase III), product of the dnaN gene, E. coli; it may or may not be the same His-tagged pET-16b construct as m1; also called fluorescent labeled β-clamp; Purified E.coli β-clamp; source: labelled with the RED-Maleimide Labelling Kit

B1: Pol III β-clamp binding peptide (Ac-EQVELEFD) (peptide)
peptide: Ac-EQVELEFD-NH2
modifications: also: TFA salt
notes: also called Pol III peptide; source: synthetic peptide; bought: Innovagen, Sweden
[1]
  binding result: binds

B2: Octamer APIM peptide RWLVK (Ac-MDRWLVKW) (peptide)
peptide: Ac-MDRWLVKW-NH2
modifications: also: TFA salt
notes: APIM motif RWLVK without the cell penetrating part; also called octamer peptide containing RWLVK; source: synthetic peptide; bought: Innovagen, Sweden
[1]
  binding result: binds
[2]
  binding result: binds
[3]
  binding result: binds
[4]
  binding result: binds
[5]
  binding result: binds
[6]
  binding result: binds

B3: Cell penetrating APIM-peptide RWLVK (Ac-MD-RWLVK-WKKKRKI-RRRRRRRRRRR) (peptide)
peptide: Ac-MDRWLVKWKKKRKIRRRRRRRRRRR-NH2
modifications: also: TFA salt
notes: APIM motif RWLVK, linker WKKKRKI, cell penetrating R11; TFA salt, >90% pure; also called RWLVK-peptide; cell penetrating RWLVK-peptide; source: synthetic peptide; bought: Innovagen, Sweden
[7]
  Kd: < 50 µM

B4: Cell penetrating peptide with mutated APIM RALVK (Ac-MD-RALVK-WKKKRKI-RRRRRRRRRRR) (peptide)
peptide: Ac-MDRALVKWKKKRKIRRRRRRRRRRR-NH2
modifications: also: TFA salt
notes: mutated APIM RALVK, linker WKKKRKI, cell penetrating R11; TFA salt, >90% pure; also called RALVK-peptide; source: synthetic peptide; bought: Innovagen, Sweden
[7]
  Kd: > 750 µM

B5: Cell penetrating APIM-peptide RFSLK (Ac-MD-RFSLK-WKKKRKI-RRRRRRRRRRR) (peptide)
peptide: Ac-MDRFSLKWKKKRKIRRRRRRRRRRR-NH2
modifications: also: TFA salt
notes: APIM motif RFSLK, linker WKKKRKI, cell penetrating R11; TFA salt, >90% pure; also called RFSLK-peptide; source: synthetic peptide; bought: Innovagen, Sweden
[7]
  Kd: < 50 µM
